Broadly, the Kd is the free concentration of one partner at which half of the binding sites on the other are occupied at equilibrium, for simple one-to-one binding. A low value points to tighter binding.

In this assay the target is T1, Human phosphatase PRL3, amino acids 1–169 (wild type) (human, UniProt O75365 1-169).
T1 construct: N-terminal extension Gly-Ser-His left after thrombin cleavage of the His tag; phosphatase of regenerating liver 3 (PRL3), human, amino acids 1-169; also called PRL3-wt; wild-type PRL3; not shown: His6, N-terminal, cleaved
Nature of the assay: ITC; syringe 160 μM PRL2 or PRL3, cell 16 μM CNNM3 CBS-pair domain as a GST fusion; 22 °C; 30 injections of 10 μl; fitted to a single set of identical sites. Particulars: both partners purified.

T1 sequence (O75365 other isoform, or with tags, fused parts or gaps): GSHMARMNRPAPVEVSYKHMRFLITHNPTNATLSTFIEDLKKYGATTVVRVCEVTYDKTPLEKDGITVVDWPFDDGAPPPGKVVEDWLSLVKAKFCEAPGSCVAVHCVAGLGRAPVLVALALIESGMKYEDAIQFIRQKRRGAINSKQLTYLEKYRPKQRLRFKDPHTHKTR

B1: CNNM3 CBS-pair domain as a GST fusion (domain or fragment, human)
chain: LRCRTVEDVLTPLEDCFMLDASTVLDFGVLASIMQSGHTRIPVYEEERSNIVDMLYLKDLAFVDPEDCTPLSTITRFYNHPLHFVFNDTKLDAVLEEFKRGKSHLAIVQKVNNEGEGDPFYEVLGLVTLEDVIEEIIRSEILDE
notes: CBS-pair domain of human CNNM3; also called CBS-pair (Bateman) domain of CNNM3
Molecule B1 returned a Kd of 11 nM. That is a double-digit nanomolar value.

For the origin of these results see publication PMC5427921, “PRL3 phosphatase active site is required for binding the putative magnesium transporter CNNM3” (Scientific Reports, 2017).
